According to the supplement of paper PMC9233669:
Variants at the floor of the assay were thinned out.

How the values were obtained:
[1] = system: biotinyl-Phe-oxazolone; test: self-aminoacylation, catalytic enhancement (BFO) (fold over background); higher = more active; k-Seq, kA / k0A0; sequences stand for … in GGGAAUGGAUCCACAUCUACGAAUUC…UUCACUGCAGACUUGACGAAGCUG
Method in brief: (§1)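 Catalytic enhancement equals the median kA over the uncatalyzed rate, the latter read from the low-activity peak of a bimodal Gaussian fit. Values of kA came from fitting each sequence's fraction reacted to a pseudo-first-order model, with 1000 bootstraps. Reacted RNA was captured with streptavidin and quantified by triplicate qPCR and Illumina sequencing after 90 minutes at room temperature with 2–1250 μM biotinyl-aminoacyl-oxazolone and 0.43 μM mutagenized RNA pools bearing a 21-nt variable region.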

[2] = system: biotinyl-Ile-oxazolone; test: self-aminoacylation, catalytic enhancement (BIO) (fold over background); higher = more active; k-Seq, kA / k0A0; sequences stand for … in GGGAAUGGAUCCACAUCUACGAAUUC…UUCACUGCAGACUUGACGAAGCUG
Method in brief: as §1

[3] = system: biotinyl-Met-oxazolone; test: self-aminoacylation, catalytic enhancement (BMO) (fold over background); higher = more active; k-Seq, kA / k0A0; sequences stand for … in GGGAAUGGAUCCACAUCUACGAAUUC…UUCACUGCAGACUUGACGAAGCUG
Method in brief: as §1

[4] = system: biotinyl-Val-oxazolone; test: self-aminoacylation, catalytic enhancement (BVO) (fold over background); higher = more active; k-Seq, kA / k0A0; sequences stand for … in GGGAAUGGAUCCACAUCUACGAAUUC…UUCACUGCAGACUUGACGAAGCUG
Method in brief: as §1

[5] = system: biotinyl-Leu-oxazolone; test: self-aminoacylation, catalytic enhancement (BLO) (fold over background); higher = more active; k-Seq, kA / k0A0; sequences stand for … in GGGAAUGGAUCCACAUCUACGAAUUC…UUCACUGCAGACUUGACGAAGCUG
Method in brief: as §1

[6] = system: biotinyl-Trp-oxazolone; test: self-aminoacylation, catalytic enhancement (BWO) (fold over background); higher = more active; k-Seq, kA / k0A0; sequences stand for … in GGGAAUGGAUCCACAUCUACGAAUUC…UUCACUGCAGACUUGACGAAGCUG
Method in brief: as §1

Sequence | self-aminoacylation [1] | self-aminoacylation [2] | self-aminoacylation [3] | self-aminoacylation [4] | self-aminoacylation [5] | self-aminoacylation [6]
AAGUUUGCUAAUAGUAGCACG [Fam3.1 aminoacylation ribozyme variant] | 1.39 | 0.814 | 0.733 | 0.764 | 0.619 | 0.766
AAGUUUGCUAAUAGUCACGAG [Fam3.1 aminoacylation ribozyme variant] | 1.54 | 1.26 | 1.33 | 1.22 | 0.881 | 1.34
AAGUUUGCUAAUAGUCACUAG [Fam3.1 aminoacylation ribozyme variant] | 1.1 | 1.08 | 0.981 | 0.939 | 0.836 | 1.13
AAGUUUGCUAAUAGUCCCGAG [Fam3.1 aminoacylation ribozyme variant] | 1.54 | 1.22 | 1.28 | 1.27 | 1.31 | 2.65
AAGUUUGCUAAUAGUCGAAUG [Fam3.1 aminoacylation ribozyme variant] | 1.48 | 1.09 | 1.17 | 0.903 | 0.88 | 1.17
AAGUUUGCUAAUAGUCGCAGC [Fam3.1 aminoacylation ribozyme variant] | 1.11 | 1.17 | 0.956 | 0.913 | 0.821 | 1.99
AAGUUUGCUAAUAGUCGCCAG [Fam3.1 aminoacylation ribozyme variant] | 1.41 | 1.02 | 1.03 | 0.997 | 0.962 | 1.39
AAGUUUGCUAAUAGUCGCCCG [Fam3.1 aminoacylation ribozyme variant] | 9.34 | 3.76 | 2.98 | 2.69 | 3.87 | 3.76
AAGUUUGCUAAUAGUCGCCGG [Fam3.1 aminoacylation ribozyme variant] | 10.5 | 3.08 | 5.01 | 4.14 | 3.53 | 5.77
AAGUUUGCUAAUAGUCGCUAC [Fam3.1 aminoacylation ribozyme variant] | 0.82 | 0.54 | 0.57 | 0.697 | 0.476 | 0.666
AAGUUUGCUAAUAGUCGGAAG [Fam3.1 aminoacylation ribozyme variant] | 14.8 | 1.13 | 1.16 | 1.03 | 0.934 | 4.58
AAGUUUGCUAAUAGUCGUAAA [Fam3.1 aminoacylation ribozyme variant] | 2.23 | 0.909 | 0.973 | 1.04 | 0.826 | 1.01
AAGUUUGCUAAUAGUCGUAAC [Fam3.1 aminoacylation ribozyme variant] | 1.02 | 0.726 | 0.658 | 0.822 | 0.68 | 0.778
AAGUUUGCUAAUAGUCGUCAG [Fam3.1 aminoacylation ribozyme variant] | 2.16 | 0.795 | 0.638 | 0.905 | 0.715 | 1.26
AAGUUUGCUAAUAGUCGUGAG [Fam3.1 aminoacylation ribozyme variant] | 2.86 | 1.19 | 1.31 | 1.04 | 1.13 | 2.15
AAGUUUGCUAAUAGUCUCGAG [Fam3.1 aminoacylation ribozyme variant] | 2.01 | 1.06 | 1.02 | 0.95 | 1.14 | 1.96
AAGUUUGCUAAUAGUGGCAAA [Fam3.1 aminoacylation ribozyme variant] | 0.91 | 1.09 | 0.891 | 1.04 | 0.789 | 1.24
AAGUUUGCUAAUAGUGGCAAG [Fam3.1 aminoacylation ribozyme variant] | 0.894 | 0.737 | 0.734 | 0.739 | 0.692 | 0.773
AAGUUUGCUAAUAGUUGGAAG [Fam3.1 aminoacylation ribozyme variant] | 1.47 | 1.29 | 1.38 | 1.25 | 1.21 | 0.896
AAGUUUGCUAAUAUUAGCAAG [Fam3.1 aminoacylation ribozyme variant] | 1.2 | 1.28 | 1.32 | 1.24 | 1.08 | 1.3
AAGUUUGCUAAUAUUCGCAAC [Fam3.1 aminoacylation ribozyme variant] | 0.972 | 1.15 | 1.22 | 1.17 | 1.11 | 2.36
AAGUUUGCUAAUAUUCGCAGG [Fam3.1 aminoacylation ribozyme variant] | 1.32 | 1.35 | 1.68 | 1.31 | 1.4 | 2.04
AAGUUUGCUAAUAUUCGCAUG [Fam3.1 aminoacylation ribozyme variant] | 1.47 | 1.14 | 1.19 | 1.19 | 1.08 | 0.844
AAGUUUGCUAAUAUUCUCAAG [Fam3.1 aminoacylation ribozyme variant] | 1.04 | 1.1 | 1.17 | 1.18 | 1.15 | 1.48
AAGUUUGCUAAUAUUGGCAAG [Fam3.1 aminoacylation ribozyme variant] | 0.81 | 0.773 | 0.894 | 0.784 | 0.847 | 1.22
AAGUUUGCUAAUCCUCGCAAG [Fam3.1 aminoacylation ribozyme variant] | 0.881 | 0.706 | 0.628 | 0.733 | 0.725 | 0.599

Sequence | self-aminoacylation [1] | self-aminoacylation [2] | self-aminoacylation [3] | self-aminoacylation [4] | self-aminoacylation [5] | self-aminoacylation [6]
AAGUUUGCUAAUCGUCGCAAU [Fam3.1 aminoacylation ribozyme variant] | 0.833 | 1.39 | 1.3 | 1.3 | 1.04 | 1.03
AAGUUUGCUAAUCGUCGCGAG [Fam3.1 aminoacylation ribozyme variant] | 1.8 | 1.04 | 1.27 | 1.01 | 1.36 | 1.49
AAGUUUGCUAAUCGUCGCUAG [Fam3.1 aminoacylation ribozyme variant] | 1.07 | 0.976 | 0.844 | 0.834 | 0.87 | 0.871
AAGUUUGCUAAUCGUCGUAAG [Fam3.1 aminoacylation ribozyme variant] | 6.16 | 0.808 | 0.85 | 0.947 | 0.75 | 2.06
AAGUUUGCUAAUGGUAGCAAG [Fam3.1 aminoacylation ribozyme variant] | 1.12 | 1.02 | 0.976 | 0.994 | 0.692 | 0.649
AAGUUUGCUAAUGGUCCCAAG [Fam3.1 aminoacylation ribozyme variant] | 1.11 | 0.977 | 0.976 | 1 | 0.908 | 1.21
AAGUUUGCUAAUUGUCGCCAG [Fam3.1 aminoacylation ribozyme variant] | 5.34 | 1.49 | 1.53 | 1.39 | 1.49 | 1.73
AAGUUUGCUAAUUGUCGCGAG [Fam3.1 aminoacylation ribozyme variant] | 17.4 | 2.04 | 1.75 | 1.68 | 2.02 | 2.7
AAGUUUGCUAAUUGUGGCAAG [Fam3.1 aminoacylation ribozyme variant] | 0.701 | 0.735 | 0.688 | 0.817 | 0.988 | 0.773
AAGUUUGCUACUAGUCGCAUG [Fam3.1 aminoacylation ribozyme variant] | 1.11 | 0.915 | 0.717 | 1.09 | 0.707 | 0.836
AAGUUUGCUAGUAGUCACAAG [Fam3.1 aminoacylation ribozyme variant] | 1.37 | 1.05 | 1.43 | 1.08 | 0.962 | 0.986
AAGUUUGCUAGUAGUCGCAGG [Fam3.1 aminoacylation ribozyme variant] | 2.48 | 0.89 | 1.02 | 0.799 | 0.956 | 1.05
AAGUUUGCUAGUUGUCGCAAG [Fam3.1 aminoacylation ribozyme variant] | 3.68 | 1.07 | 0.898 | 1.08 | 1.16 | 1.18
AAGUUUGCUAUGAGUCGCAAG [Fam3.1 aminoacylation ribozyme variant] | 0.664 | 0.692 | 0.644 | 0.974 | 0.778 | 0.54
AAGUUUGCUAUUAGUCGCAAA [Fam3.1 aminoacylation ribozyme variant] | 1.58 | 1.52 | 1.84 | 1.35 | 1.47 | 1.74
AAGUUUGCUAUUGGUCGCAAG [Fam3.1 aminoacylation ribozyme variant] | 1.46 | 0.787 | 0.756 | 0.76 | 1.05 | 0.66
AAGUUUGCUCAAAGUCGCAAG [Fam3.1 aminoacylation ribozyme variant] | 2.29 | 1.24 | 1.37 | 0.877 | 0.974 | 1.13
AAGUUUGCUCAUAGUCCCAAG [Fam3.1 aminoacylation ribozyme variant] | 1.29 | 0.902 | 0.856 | 1.06 | 0.902 | 0.793
AAGUUUGCUCAUAGUCGCAUG [Fam3.1 aminoacylation ribozyme variant] | 0.909 | 1.05 | 0.893 | 1.04 | 0.903 | 0.856
AAGUUUGCUCAUAGUCUCAAG [Fam3.1 aminoacylation ribozyme variant] | 1.98 | 0.872 | 0.869 | 0.901 | 0.977 | 0.98
AAGUUUGCUCUUAGUCGCAAG [Fam3.1 aminoacylation ribozyme variant] | 1.53 | 0.73 | 0.758 | 0.813 | 0.786 | 0.65
AAGUUUGCUGAUACUCGCAAG [Fam3.1 aminoacylation ribozyme variant] | 0.915 | 1.11 | 0.744 | 0.897 | 0.885 | 1.07
AAGUUUGCUGAUAGGCGCAAG [Fam3.1 aminoacylation ribozyme variant] | 2.19 | 0.732 | 1.26 | 0.765 | 0.707 | 0.544
AAGUUUGCUGAUAGUCGGAAG [Fam3.1 aminoacylation ribozyme variant] | 0.837 | 0.72 | 0.933 | 0.838 | 0.849 | 0.832
AAGUUUGCUGAUAGUCUCAAG [Fam3.1 aminoacylation ribozyme variant] | 1.94 | 1.11 | 1.01 | 1.13 | 0.963 | 1.28
